This note sets out measurements from the supplement of paper PMC12783771.

First the molecules themselves.
B1: library; a variant is named by its letters at X, in order (parent)
chain: MNIQIGELAKRTACPVVTIRFYEQEGLLPPPGRSRGNFRLYGEEHVERLQFIRHCRSLDMPLSDVRTLLSYRKRPDQDCGEVXMLLDEHIRQVESRIGALLELKHHLVELREACSGARPAQSCGILQXLSXCVCXTRGTTAHXSD

± gives the standard deviation of the averaged measurements.

Data set [1] covers variants of B1. Description: sfGFP reporter fluorescence (15 h) (µM FITC); higher = higher leak. The settings on record: library round: Round 2; ligand: none. The method in brief: (§1)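 PCR-made linear PbrR templates (Echo-normalized to 5 nM) were expressed in BL21 Star (DE3) extract (PANOx-SP) with pPbrR-sfGFP reporter plasmid and 30 μg/mL GamS. Reactions were 1 μL, Echo-assembled, with 1 µM lead chloride, 30 µM zinc acetate or no metal, incubated 15 hr at 30 °C. Endpoint sfGFP fluorescence (485/528 nm, Synergy Neo2) was converted to µM FITC via standard curves in 50 mM sodium borate pH 8.5. Up to three biological replicates.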

The variants in data set [2] derive from B1. Description: sfGFP reporter fluorescence (15 h) (µM FITC); higher = stronger transcriptional activation. The settings on record: library round: Round 2. The procedure, abridged:
as §1

Regarding TGCAT, the figures for the sfGFP reporter fluorescence in data set [1], in data set [2] (ligand: 1 µM Pb) and in data set [2] (ligand: 30 µM Zn) were 0.0488 ± 0.002, 0.0664 ± 0.0029 and 0.09 ± 0.0056, respectively.

For the variant NGDAP P61N D64T E112I, the sfGFP reporter fluorescence in data set [1] was found to be 0.11 ± 0.014; in data set [2] (ligand: 1 µM Pb) it was 0.308 ± 0.03; in data set [2] (ligand: 30 µM Zn) it was 1.7 ± 0.2.

Turning to SGDAY, the sfGFP reporter fluorescence was 0.0491 ± 0.0015 in data set [1], 0.0749 ± 0.0032 in data set [2] (ligand: 1 µM Pb) and 0.399 ± 0.039 in data set [2] (ligand: 30 µM Zn).

On to NGYAP S95G, for which the sfGFP reporter fluorescence in data set [1] is 0.0664 ± 0.003; in data set [2] (ligand: 1 µM Pb), 0.0795 ± 0.0044; in data set [2] (ligand: 30 µM Zn), 1.03 ± 0.072.

For the variant NGDDR V108L T139A, the sfGFP reporter fluorescence in data set [1] was determined as 0.0498 ± 0.0012; in data set [2] (ligand: 1 µM Pb), 0.068 ± 0.0054; in data set [2] (ligand: 30 µM Zn) it was 0.809 ± 0.081.

Take TGCDT: the sfGFP reporter fluorescence in data set [1] is 0.0478 ± 0.0007; in data set [2] (ligand: 1 µM Pb), 0.0731 ± 0.0033; in data set [2] (ligand: 30 µM Zn), 0.0847 ± 0.0041.

In the case of TGDDP R96A K104V L107I, the sfGFP reporter fluorescence in data set [1] turned out to be 0.0526 ± 0.0017; in data set [2] (ligand: 1 µM Pb), 0.0483 ± 0.0032; in data set [2] (ligand: 30 µM Zn) it was 0.0559 ± 0.002.

On to NADPP V108L L129M, for which the sfGFP reporter fluorescence in data set [1] amounted to 0.0617 ± 0.0065; in data set [2] (ligand: 1 µM Pb), 0.0681 ± 0.0059; in data set [2] (ligand: 30 µM Zn), 0.734 ± 0.067.

Take NGDPP G124S I125L: the sfGFP reporter fluorescence amounted to 0.0484 ± 0.0015 in data set [1], 0.0455 ± 0.0014 in data set [2] (ligand: 1 µM Pb) and 0.0506 ± 0.001 in data set [2] (ligand: 30 µM Zn).
